Key:
purified protein [1] = substrate: CC(=O)CCC(C)=O; assay: purified protein; assay type: biochemical, Levilactobacillus brevis; conditions: 0.3 mM NADPH, 1 mM MgCl2, 50 mM TEA pH 7.0, 30 °C
purified protein [2] = substrate: COC(=O)CC(C)=O; assay: purified protein; assay type: biochemical, Levilactobacillus brevis; conditions: 0.3 mM NADPH, 1 mM MgCl2, 50 mM TEA pH 7.0, 30 °C

Row | Protein | Km (purified protein [1]) [µM] | Vmax (purified protein [1]) [µmol/min/mg] | Km (purified protein [2]) [µM] | Vmax (purified protein [2]) [µmol/min/mg]
1 | LbADH (Levilactobacillus brevis) (protein) SNRLDGKVAIITGGTLGIGLAIATKFVEEGAKVMITGRHSDVGEKAAKSVGTPDQIQFFQHDSSDEDGWTKLFDATEKAFGPVSTLVNNAGIAVNKSVEETTTAEWRKLLAVNLDGVFFGTRLGIQRMKNKGLGASIINMSSIEGFVGDPSLGAYNASKGAVRIMSKSAALDCALKDYDVRVNTVHPGYIKTPLVDDLPGAEEAMSQRTKTPMGHIGEPNDIAYICVYLASNESKFATGSEFVVDGGYTAQ | 5100 ± 600 | 148 | 1130 ± 60 | 154
2 | LbADH (Levilactobacillus brevis; K72E) (protein) SNRLDGKVAIITGGTLGIGLAIATKFVEEGAKVMITGRHSDVGEKAAKSVGTPDQIQFFQHDSSDEDGWTELFDATEKAFGPVSTLVNNAGIAVNKSVEETTTAEWRKLLAVNLDGVFFGTRLGIQRMKNKGLGASIINMSSIEGFVGDPSLGAYNASKGAVRIMSKSAALDCALKDYDVRVNTVHPGYIKTPLVDDLPGAEEAMSQRTKTPMGHIGEPNDIAYICVYLASNESKFATGSEFVVDGGYTAQ | 4300 ± 500 | 173 | 670 ± 40 | 221

Source: paper PMC6969876, “NADPH biosensor-based identification of an alcohol dehydrogenase variant with improved catalytic properties caused by a single charge reversal at the protein surface” (AMB Express, 2020)
